Our source for the abundance fitness values is the Human Domainome abundance scans (Beltran et al. 2025).

± gives the uncertainty stated by the source.

B1: Nuclear receptor subfamily 1 group D member 2, residues 103 to 171; numbered along this chain, Q14995 (parent)
chain: CKVCGDVASGFHYGVHACEGCKGFFRRSIQQNIQYKKCLKNENCSIMRMNRNRCQQCRFKKCLSVGMSR

Variants of B1 are the subject of the series. As to the kind of experiment: abundance fitness (aPCA) (normalised: wild type 0, dead -1); higher = more abundant; growth selection in yeast, the domain comes from the species named. The conditions noted are these: Homo sapiens.
With V7S, the abundance fitness is -0.083 ± 0.075.

For the variant C1F, the abundance fitness is -0.451 ± 0.32.

Regarding K61P, the abundance fitness is -0.905 ± 0.34.

Take K61T: the abundance fitness is -0.652 ± 0.22.

On to K61C, for which the abundance fitness was -0.717 ± 0.38.

With K61Y, the abundance fitness is -0.547 ± 0.44.

Take K61M: the abundance fitness is -0.776 ± 0.34.

For K61V, the abundance fitness was -0.886 ± 0.3.

For the variant K61Q, the abundance fitness is -0.647 ± 0.22.

For the variant S45V, the abundance fitness is -0.056 ± 0.1.

Take S45K: the abundance fitness was -0.646 ± 0.44.

For S45G, the abundance fitness is -0.119 ± 0.11.

Consider S45R, for which the abundance fitness is -0.259 ± 0.051.

Turning to S45A, the abundance fitness was -0.424 ± 0.14.

In the case of S45W, the abundance fitness is -0.54 ± 0.18.

Regarding S45Y, the abundance fitness was -0.045 ± 0.14.

As for S45T, the abundance fitness is -0.133 ± 0.13.

Turning to G14T, the abundance fitness is -0.828 ± 0.38.

Regarding G14S, the abundance fitness is -0.291 ± 0.11.

With G14L, the abundance fitness is -0.898 ± 0.18.

Take G14D: the abundance fitness was -0.579 ± 0.49.

For the variant G5I, the abundance fitness was -0.83 ± 0.25.

Turning to G5P, the abundance fitness was -0.598 ± 0.11.

As for G5T, the abundance fitness is -0.802 ± 0.13.

Regarding G5F, the abundance fitness was -0.918 ± 0.2.

For the variant G5R, the abundance fitness was -0.824 ± 0.083.

G5Q: the abundance fitness is -0.476 ± 0.1.

As for G5S, the abundance fitness is -0.689 ± 0.097.

Consider G5Y, for which the abundance fitness is -1.11 ± 0.31.

Regarding G5V, the abundance fitness is -0.815 ± 0.11.

In the case of G5K, the abundance fitness was -0.5 ± 0.11.

With G5E, the abundance fitness is -0.605 ± 0.13.

On to G5W, for which the abundance fitness is -0.684 ± 0.089.

Take N41G: the abundance fitness was -0.036 ± 0.09.

For N41M, the abundance fitness was -0.586 ± 0.17.

Consider N41E, for which the abundance fitness is -0.063 ± 0.089.

Consider N41V, for which the abundance fitness is -0.446 ± 0.13.

Consider N41T, for which the abundance fitness was -0.047 ± 0.12.

Turning to N41A, the abundance fitness is -0.219 ± 0.085.

Regarding N41Y, the abundance fitness was -0.492 ± 0.35.

Consider Q55E, for which the abundance fitness is 0.251 ± 0.1.

Consider Q55I, for which the abundance fitness is -0.611 ± 0.19.

Take Q55V: the abundance fitness is -0.425 ± 0.13.

Q55C: the abundance fitness was -0.324 ± 0.22.

As for Q55L, the abundance fitness was -0.006 ± 0.061.

Regarding Q55P, the abundance fitness is 0.027 ± 0.093.

Regarding Y13V, the abundance fitness is -0.528 ± 0.087.

As for Y13F, the abundance fitness worked out at 0.059 ± 0.089.

With Y13E, the abundance fitness is -0.099 ± 0.093.

Y13W: the abundance fitness is -0.152 ± 0.065.

With Y13P, the abundance fitness was -0.89 ± 0.16.

For Y13K, the abundance fitness is -0.491 ± 0.1.

As to Y13A, the abundance fitness is -0.459 ± 0.09.

For the variant F25S, the abundance fitness was -0.609 ± 0.16.

For F25I, the abundance fitness is -0.152 ± 0.18.

Consider F25R, for which the abundance fitness was -0.646 ± 0.19.

Take F25E: the abundance fitness was -0.634 ± 0.48.

Regarding R69G, the abundance fitness is 0.112 ± 0.079.

For the variant R69L, the abundance fitness is 0.143 ± 0.087.

As to R69M, the abundance fitness worked out at 0.318 ± 0.12.

With R69Y, the abundance fitness was -0.083 ± 0.2.

For R69T, the abundance fitness was 0.451 ± 0.13.

As to F24E, the abundance fitness was -0.68 ± 0.23.

In the case of F24V, the abundance fitness is -0.81 ± 0.15.

As to F24G, the abundance fitness was -0.798 ± 0.17.

Take F24L: the abundance fitness is -0.272 ± 0.16.

As for F24A, the abundance fitness is -1.09 ± 0.34.

As to F24S, the abundance fitness was -0.661 ± 0.3.

Consider E19Y, for which the abundance fitness is -0.394 ± 0.36.

Consider E19D, for which the abundance fitness came out at 0.114 ± 0.21.

Take E19V: the abundance fitness is -0.669 ± 0.37.

For the variant E19T, the abundance fitness is -0.478 ± 0.28.

With E19W, the abundance fitness is -0.325 ± 0.17.

On to E19R, for which the abundance fitness is -0.058 ± 0.27.

With E19M, the abundance fitness is -0.884 ± 0.43.

Regarding R48K, the abundance fitness was -0.005 ± 0.13.

For R48A, the abundance fitness was found to be 0.193 ± 0.09.

As for A17R, the abundance fitness is -0.887 ± 0.16.

As to A17T, the abundance fitness was -0.392 ± 0.14.

Turning to A17E, the abundance fitness was -0.805 ± 0.15.

For the variant A17L, the abundance fitness is -0.666 ± 0.14.

Consider G66D, for which the abundance fitness was -0.866 ± 0.41.

Take G66F: the abundance fitness was -0.562 ± 0.47.

On to G66P, for which the abundance fitness is -0.802 ± 0.49.

On to K60W, for which the abundance fitness is 0.021 ± 0.2.

As to K60A, the abundance fitness is -0.009 ± 0.16.

For K60G, the abundance fitness is -0.428 ± 0.15.

Consider K60I, for which the abundance fitness is 0.406 ± 0.2.

Regarding I29A, the abundance fitness was -0.723 ± 0.14.

Regarding I29M, the abundance fitness was -0.14 ± 0.12.

For the variant I29R, the abundance fitness was -0.601 ± 0.11.

I29W: the abundance fitness is -0.412 ± 0.13.

With I29S, the abundance fitness was -0.7 ± 0.067.

For the variant I29Y, the abundance fitness was -0.813 ± 0.36.

For I29N, the abundance fitness was -0.058 ± 0.28.

Turning to I29V, the abundance fitness is -0.17 ± 0.075.

With V65T, the abundance fitness was -0.536 ± 0.082.

V65L: the abundance fitness is -0.708 ± 0.13.

V65I: the abundance fitness is -0.308 ± 0.12.

V65A: the abundance fitness was -0.306 ± 0.092.

Take V65Y: the abundance fitness was -0.234 ± 0.18.

Take V65C: the abundance fitness was -0.571 ± 0.43.

Regarding V65F, the abundance fitness is -0.739 ± 0.25.

Consider V65D, for which the abundance fitness was -0.601 ± 0.2.

Turning to V15I, the abundance fitness was -0.327 ± 0.16.

Regarding V15Y, the abundance fitness was -0.492 ± 0.38.

In the case of V15T, the abundance fitness is -0.961 ± 0.47.

Regarding V15P, the abundance fitness was -0.67 ± 0.094.

V15M: the abundance fitness was -0.753 ± 0.15.

For S64M, the abundance fitness was -0.072 ± 0.11.

With S64T, the abundance fitness was -0.002 ± 0.094.

On to S64I, for which the abundance fitness is -0.911 ± 0.35.

On to S64C, for which the abundance fitness is -0.469 ± 0.38.

S64Y: the abundance fitness was -0.512 ± 0.14.

As for S64V, the abundance fitness is -0.107 ± 0.09.

In the case of D6Y, the abundance fitness was -0.445 ± 0.35.

For D6G, the abundance fitness was -0.535 ± 0.34.

As for D6R, the abundance fitness is -0.857 ± 0.26.

Take D6F: the abundance fitness was -0.694 ± 0.38.

For the variant D6L, the abundance fitness was -0.572 ± 0.2.

For the variant D6S, the abundance fitness was -0.706 ± 0.45.

As for I33F, the abundance fitness is -0.38 ± 0.082.

I33D: the abundance fitness is -0.708 ± 0.088.

Turning to I33W, the abundance fitness is -0.668 ± 0.12.

In the case of I33C, the abundance fitness is -0.591 ± 0.097.

With I46R, the abundance fitness is -0.127 ± 0.092.

Turning to I46L, the abundance fitness is -0.282 ± 0.15.

In the case of I46M, the abundance fitness is -0.093 ± 0.26.

On to I46S, for which the abundance fitness was -0.353 ± 0.16.

As for I46V, the abundance fitness worked out at 0.123 ± 0.12.

On to I46G, for which the abundance fitness is -0.258 ± 0.11.

As for M67R, the abundance fitness is -0.241 ± 0.09.

M67E: the abundance fitness was -0.483 ± 0.25.

On to M67Y, for which the abundance fitness was -0.558 ± 0.42.

For M67H, the abundance fitness was -0.973 ± 0.33.

On to V3I, for which the abundance fitness was -0.293 ± 0.27.

As to V3S, the abundance fitness was -0.161 ± 0.46.

In the case of V3A, the abundance fitness was -0.74 ± 0.33.

As to C44Y, the abundance fitness is -0.183 ± 0.32.

For the variant C18K, the abundance fitness is -0.829 ± 0.32.

With C18E, the abundance fitness was -0.847 ± 0.3.

For the variant C18S, the abundance fitness is -0.812 ± 0.28.

Q30N: the abundance fitness was -0.43 ± 0.49.

On to Q30I, for which the abundance fitness was -0.553 ± 0.5.

As to Q30L, the abundance fitness is -0.023 ± 0.095.

With Q30P, the abundance fitness was -0.523 ± 0.32.

Regarding Q30S, the abundance fitness is -0.364 ± 0.21.

As for K37C, the abundance fitness is -0.495 ± 0.18.

With K37D, the abundance fitness was found to be 0.255 ± 0.044.

For the variant K37E, the abundance fitness is -0.04 ± 0.1.

Take K37Q: the abundance fitness is -0.075 ± 0.12.

As for K37Y, the abundance fitness was -0.631 ± 0.35.

On to K37S, for which the abundance fitness is 0.011 ± 0.07.

Turning to K37T, the abundance fitness was -0.234 ± 0.12.

For the variant K37H, the abundance fitness is -0.241 ± 0.18.

Turning to C62A, the abundance fitness was -0.015 ± 0.2.

On to C62R, for which the abundance fitness is -0.667 ± 0.19.

As for C62T, the abundance fitness is -0.948 ± 0.27.

Turning to C62M, the abundance fitness is -0.336 ± 0.17.

As to C62N, the abundance fitness was -0.812 ± 0.45.

Turning to C62E, the abundance fitness is -0.456 ± 0.27.

As to E42H, the abundance fitness is -0.231 ± 0.19.

In the case of E42N, the abundance fitness is -0.004 ± 0.12.

For E42D, the abundance fitness was -0.025 ± 0.1.

Regarding E42S, the abundance fitness was -0.172 ± 0.076.

Take E42C: the abundance fitness was -0.592 ± 0.26.

For E42V, the abundance fitness is -0.798 ± 0.14.
